Results on one protein are retold here after PMC12196458, “An Alternative Mechanism of Glutamate Dehydrogenase Inhibition by EGCG: Promotion of Protein Degradation” (Pharmaceuticals, 2025).

The data set concerns the molecule itself. In words: native gel or EMSA; native-PAGE of 2.5 mg/mL bovine GDH without EGCG or trypsin.

B1: bovine glutamate dehydrogenase (enzyme)
chain: not shown
notes: Glutamate dehydrogenase 1, bovine, commercial preparation; Used as a substitute for wild-type human GDH in the gel experiments; also called Bovine GDH; Bo.GDH
With B1, the “stoichiometry N” value turned out to be 6.
